Results taken from article PMC12462478 (Nature Communications, 2025).

Target: human LGR4 (residues 25–833), called full-length LGR4 (human, UniProt Q9BXB1 25-833)
Test: cryo-EM structure

B1: RSPO2(FU), FU domain of RSPO2 (residues 37–143) (domain or fragment)
chain: NPICKGCLSCSKDNGCSRCQQKLFFFLRREGMRQYGECLHSCPSGYYGHRAPDMNRCARCRIENCDSCFSKDFCTKCKVGFYLHRGRCFDECPDGFAPLEETMECVE
B1 was tested. Which “stoichiometry N” value did it give?
Its value is 1.
